According to patent US20110151454:
Residue numbers refer to the chain shown, from its start. Names and notes keep the numbering of the source.

Key:
[1] = molecular target: HA-tagged p27 phosphorylated at T187 by CDK2/cyclinA, P46527
[2] = molecular target: HA-SKP2 phosphorylated in vitro by AKT (32P-SKP2), Q13309
Sequence of HA-SKP2 phosphorylated in vitro by AKT (32P-SKP2), Q13309 (Q13309 whole entry, looked up): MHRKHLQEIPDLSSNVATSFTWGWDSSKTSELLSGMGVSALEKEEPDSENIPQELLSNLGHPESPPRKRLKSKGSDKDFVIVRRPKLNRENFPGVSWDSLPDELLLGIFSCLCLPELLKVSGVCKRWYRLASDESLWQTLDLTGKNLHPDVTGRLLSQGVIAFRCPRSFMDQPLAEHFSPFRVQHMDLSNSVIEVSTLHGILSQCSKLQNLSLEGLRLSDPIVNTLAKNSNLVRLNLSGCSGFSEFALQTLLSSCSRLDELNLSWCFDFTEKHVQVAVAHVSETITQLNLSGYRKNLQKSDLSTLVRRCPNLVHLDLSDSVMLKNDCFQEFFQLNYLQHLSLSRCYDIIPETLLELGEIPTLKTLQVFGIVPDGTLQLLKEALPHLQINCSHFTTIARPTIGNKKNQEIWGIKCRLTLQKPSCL

Sequence of HA-tagged p27 phosphorylated at T187 by CDK2/cyclinA, P46527 (P46527 whole entry, looked up): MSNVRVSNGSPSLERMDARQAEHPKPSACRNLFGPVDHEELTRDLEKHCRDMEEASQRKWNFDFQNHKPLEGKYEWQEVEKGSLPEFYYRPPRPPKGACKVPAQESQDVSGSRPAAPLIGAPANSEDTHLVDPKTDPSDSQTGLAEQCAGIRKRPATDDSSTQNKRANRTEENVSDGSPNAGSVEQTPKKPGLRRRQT

B1: gst-PPM1H (protein)
chain: MLTRVKSAVANFMGGIMAGSSGSEHGGGSCGGSDLPLRFPYGRPEFLGLSQDEVECSADHIARPILILKETRRLPWATGYAEVINAGKSTHNEDQASCEVLTVKKKAGAVTSTPNRNSSKRRSSLPNGEGLQLKENSESEGVSCHYWSLFDGHAGSGAAVVASRLLQHHITEQLQDIVDILKNSAVLPPTCLGEEPENTPANSRTLTRAASLRGGVGAPGSPSTPPTRFFTEKKIPHECLVIGALESAFKEMDLQIERERSSYNISGGCTALIVICLLGKLYVANAGDSRAIIIRNGEIIPMSSEFTPETERQRLQYLAFMQPHLLGNEFTHLEFPRRVQRKELGKKMLYRDFNMTGWAYKTIEDEDLKFPLIYGEGKKARVMATIGVTRGLGDHDLKVHDSNIYIKPFLSSAPEVRIYDLSKYDHGSDDVLILATDGLWDVLSNEEVAEAITQFLPNCDPDDPHRYTLAAQDLVMRARGVLKDRGWRISNDRLGSGDDISVYVIPLIHGNKLS
Question: What does the source list for B1?
Answer: dephosphorylation of p27 at S10 (phosphatase reaction, Western blot) [1]: Neither enzyme exhibited activity at S10; dephosphorylation of p27 at T187 (phosphatase reaction, Western blot) [1]: only PPM1H was effective at dephosphorylating p27 at T187

B2: gst-PPM1J (protein)
chain: MLNRVRSAVAHLVSSGGAPPPRPKSPDLPNAASAPPAAAPEAPRSPPAKAGSGSATPAKAVEARASFSRPTFLQLSPGGLRRADDHAGRAVQSPPDTGRRLPWSTGYAEVINAGKSRHNEDQACCEVVYVEGRRSVTGVPREPSRGQGLCFYYWGLFDGHAGGGAAEMASRLLHRHIREQLKDLVEILQDPSPPPLCLPTTPGTPDSSDPSHLLGPQSCWSSQKEVSHESLVVGAVENAFQLMDEQMARERRGHQVEGGCCALVVIYLLGKVYVANAGDSRAIIVRNGEIIPMSREFTPETERQRLQLLGFLKPELLGSEFTHLEFPRRVLPKELGQRMLYRDQNMTGWAYKKIELEDLRFPLVCGEGKKARVMATIGVTRGLGDHSLKVCSSTLPIKPFLSCFPEVRVYDLTQYEHCPDDVLVLGTDGLWDVTTDCEVAATVDRVLSAYEPNDHSRYTALAQALVLGARGTPRDRGWRLPNNKLGSGDDISVFVIPLGGPGSYS
Question: B2 was tested. Which “dephosphorylation of p27 at S10 (phosphatase reaction, Western blot)” value [1] did it give?
Answer: Neither enzyme exhibited activity at S10

Question: What about the “dephosphorylation of p27 at T187 (phosphatase reaction, Western blot)” value (shortened to “dephosphorylation of p27 at T187”) [1] of the same protein?
Answer: only PPM1H was effective at dephosphorylating p27 at T187

B3: flag-PPM1H (protein)
chain: B1 chain
Question: For B3, which “phosphate release from synthetic phospho-peptide (Pi ColorLock Gold assay)” value (“phosphate release” below) (SKP2 S75 phospho-peptide) is on record?
Answer: No evidence for PPM1H mediated dephosphorylation of the SKP2 phospho-peptides was observed

Question: What about the “phosphate release” value (p27 S10 phospho-peptide) of the same protein?
Answer: Liberation of phosphate was observed with the p27 peptides, most notably with the T187 peptide

Question: What about the “phosphate release” value (p27 T157 phospho-peptide) of the same protein?
Answer: Liberation of phosphate was observed with the p27 peptides, most notably with the T187 peptide

Question: What about the “dephosphorylation of p27 at S10 (phosphatase reaction, Western blot)” value [1] of the same protein?
Answer: PPM1H exhibited no activity at the S10 site in this assay

Question: What about the “dephosphorylation of p27 at T187” value [1] of the same protein?
Answer: Wildtype PPM1H but not PPM1H-H153L dephosphorylated p27 at T187

Question: What about the “phosphate release” value (SKP2 S72 phospho-peptide) of the same protein?
Answer: No evidence for PPM1H mediated dephosphorylation of the SKP2 phospho-peptides was observed

Question: And the “phosphate release” value (p27 T187 phospho-peptide)?
Answer: Liberation of phosphate was observed with the p27 peptides, most notably with the T187 peptide

Question: What about the “phosphate release” value (SKP2 S64 phospho-peptide) of the same protein?
Answer: No evidence for PPM1H mediated dephosphorylation of the SKP2 phospho-peptides was observed

Question: What about the “removal of 32P from AKT-phosphorylated SKP2” value [2] of the same protein?
Answer: PPM1H lacked activity

B4: λ-phosphatase (protein)
chain: MRYYEKIDGSKYRNIWVVGDLHGCYTNLMNKLDTIGFDNKKDLLISVGDLVDRGAENVECLELITFPWFRAVRGNHEQMMIDGLSERGNVNHWLLNGGGWFFNLDYDKEILAKALAHKADELPLIIELVSKDKKYVICHADYPFDEYEFGKPVDHQQVIWNRERISNSQNGIVKEIKGADTFIFGHTPAVKPLKFANQMYIDTGAVFCGNLTLIQVQGEGA
Question: For B4, which “removal of 32P from AKT-phosphorylated SKP2” value [2] is on record?
Answer: γ-phosphatase was able to dephosphorylate SKP2

B5: flag-PPM1H-H153L (protein)
chain: B1 chain with H153L
Question: How did the “dephosphorylation of p27 at T187” value [1] turn out when B5 was run?
Answer: Wildtype PPM1H but not PPM1H-H153L dephosphorylated p27 at T187
